# According to the nanobody polyreactivity screen of Harvey et al. (2022):
# Assay: yeast display, Sf9 membrane polyspecificity reagent, FACS + sequencing; frameworks hold sequencing errors
# In short: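 A nanobody's polyreactivity label depends on the gate it was sorted from. Yeast display cells were stained with 10% biotinylated, detergent-solubilized Sf9 membrane reagent for 1 hour at 4 °C, enriched on streptavidin microbeads and sorted by FACS. The low and high (top ~1%) gates were set on anti-HA fluorescence for expression and streptavidin fluorescence for reagent binding.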
row,Sequence,polyreactivity (PSR sort gate)
1,QVQLVETGGGLVQAGGSLRLSCAASGRIFRGNTMGWYRQAPGKERELVAAISWRGGRTYYADSVKWRFTISRDNAKNTVYLQMISLKPEDTAVYYCNAVYFQTGVYGYGDYDSWGQGTQVTVSS,low polyreactivity
2,QVQLVETGGGLVQAGGSLRLSCAASGRIFRNNAMGWYRQAPGKERELVAGISSGGSTYYADSVKGRFTMSRDNAKKTVYLQMNNLKPEDTAVYFFAVVGSAYQSRYDYWGQGNQVTVSS,high polyreactivity
3,QVQLVETGGGLVQAGGSLRLSCAASGRIFVVYDMGWYRQAPGKERELVANITISGGRTYYADSVKGRFTISRDNAKNTVYLQMNSLKPEDTAVYYCAATSGALYYGYEYWGQGTQVTVSS,low polyreactivity
4,QVQLVETGGGLVQAGGSLRLSCAASGRIFYYKAKGWYRQAPGKERELVASISWDASSTYYADSVKGRFTISRDNAKNTVYLQMNSLKPEDTAVYYCNIKHLYRQYDYWGQGTQVTVSS,low polyreactivity
5,QVQLVETGGGLVQAGGSLRLSCAASGRIFYYNAMGWYRQAPGKERELVAAITGSGGSTYYADSVKGRFTISRDNEMNTVYLQMNSLKPEDSAVYYCAAVNPYIRGRYDYWGQGTQVTVSS,high polyreactivity
6,QVQLVETGGGLVQAGGSLRLSCAASGRTFHYNVMGWYRQAPGKERELVAAITNTGGSTYYADSVKGRFTISRDNAKNTVYLQMNSLKPEDTAVYYCAAVETLPFDWYYWRYDYWGQGTQVTVSS,low polyreactivity
7,QVQLVETGGGLVQAGGSLRLSCAASGRTFNVNVKGRYRQAPGKERELVAAINRRGNTYYADSVKGRFTISRDNAKNTVYLQMNSLKPEDTAVYYCAADYRRYGSYDYWGQGTQVTVSS,low polyreactivity
8,QVQLVETGGGLVQAGGSLRLSCAASGRTFWTNAMGWYRQPPGKEREFVAAISWRGASTFYADSVKWRFTISRDNAKNTVYLQMNSLIPEDTAVFYCAAQSRTRSFYGKYDSWGQGNQVTVSS,low polyreactivity
9,QVQLVETGGGLVQAGGSLRLSCAASGRTISVNAMVWYIQAPGKESELVAAISSGGGTNYADSVKGRFTISRDNAKNTVYFQMNSLKPEDTAVYYCAADSRPGKYYEDDYWGQGTQVTVSS,low polyreactivity
10,QVQLVETGGGLVQAGGSLRLSCAASGSIAFNAMGWYTQAPGKERELVAAITWRVGSTYYADSVKGRFTISRDNAMNTVDLQMHSLKTEDTAVYYCAARRTAGAYYGYNYWGQGTQVTVSS,high polyreactivity
11,QVQLVETGGGLVQAGGSLRLSCAASGSIFDGYAMGWYRQAPGKERDFVASIRFSTARTYYADSVKGRFTISRDNAKNTVYLQMNSLKPEDTAVYYCNAPQGFVWRYSSWGPYDYWGQGTQVTVSS,high polyreactivity
12,QVQLVETGGGLVQAGGSLRLSCAASGSIFYRYAMGWYRQAPGKEREMVAAIRTRGGTYYADSVKGRFTISRDNAKNTVYLQMNSLKPEDTAVYYWNAVVPGCTAVDYDYWGQGTQVTVSS,high polyreactivity
13,QVQLVETGGGLVQAGGSLRLSCAASGSIFYTNAMGWYRQAPGKERELVAVITASGGSTYYADSVKGRFTISRDNAKNTVYLQMNSLKPEDTAVYYCAADPVFNYDYWGQGTQVTVSS,low polyreactivity
14,QVQLVETGGGLVQAGGSLRLSCAASGSIFYVYAMGWYRQAPRKERELVAAINTSGGSTYADSVKGRFTISRDNAKNTDYLQMNSLKPEDTAVYYCAADGYYEYTWGEYDSWGQGTQVTVSS,low polyreactivity
15,QVQLVETGGGLVQAGGSLRLSCAASGSTFESYAMGWYRQAPGKERELVASISRCGGTTFYADSVKVRFTISRDNAKNTVYLQMNSLKPEDTEVYYCAAKRRRLGGDYWGQGTQVTVSS,high polyreactivity
16,QVQLVETGGGLVQAGGSLRLSCAASGSTFGTYAMGWDRQAPGKERELVAAISSGDSTTYADSVKGRFTISRDNAKNTVYLQMNSLKPEDTAVYYCAARTFLMRNGGYNYWGQGTQVTVSS,low polyreactivity
17,QVQLVETGGGLVQAGGSLRLSCAASGSTFTSNAMGWYRPAPGKERELVAAIDSSDGITYYADSVKGRFTISRDNAKNTVYLQMNSLKPEDTAVYYCAAEDYEAGYDYWGQGTQVTVSS,high polyreactivity
18,QVQLVETGGGLVQAGGSLRLSCAASGSTMAYYTMGWYRQEPGKEREFVASINWGGTTTYYADSVKGRFTISRDNAKNTVYLQMNSLKPEDTAVYYCAALGLRWGRSGYYYEYYYWGQGTQVTVSS,high polyreactivity
19,QVQLVETGGGLVQAGGSLRLSCAASGYTFRYYAMGWYRQAPGKERELVAAISRRGGSTSYADSVKGRFTISRDNAKNTVYLQMNSLKPEDTAVYYCAVYLGGVSPTYGYWGQGTQVTVSS,high polyreactivity
20,QVQLVETGGGLVQAGGSLRLSCADSGRIFRYNAMGWYRHAHGKERELVAAITLSTGSTYYADSVKGRFTISRDNAKNTVYLQMNSLKPEDTAVYYCAARIDGRTYARRVYYWGQGTQVTLSS,high polyreactivity
21,QVQLVETGGGLVQAGGSLRLSCAGSGHIFPTNARGWYRQSPWKARELVAVISESVGSTYYADSVKGRFTISRDNSKNTVYLQMNSLKPEDTAVYYCAKQSLYPSLDADYDYWGQGTQVNVSS,low polyreactivity
22,QVQLVETGGGLVQAGGSLRLSCAPSGRTLTYYAMGWYRQAPGKERELVAAIRHSAGSTYYADSVKVRFTISRDNAKNSVYLLMNSLKPEVTAVYYCAKKYYGHRYPSIYDYWGQGTQVTVSS,high polyreactivity

row,Sequence,polyreactivity (PSR sort gate)
1,QVQLVETGGGLVQAGGSLRLSCAPSGSIFRYNAMGWYRQAPGKEREFVAAISQSGSRTYYADSVKGRFTISRDNAKNTVYLQMNSLKPEDTAVYYCAKKYYGVKFYWGQGTQVTVSS,low polyreactivity
2,QVQLVETGGGLVQAGGSLRLSCDASGSTFVRYVMGWYRQAPGKERELVAAISRRGGSTYYADSVKGRFTISRANAKNTVYLQMNSLKPEDNAVYYCAGRGGRYFPYHGTIRYDYWGQCTQVTVSS,high polyreactivity
3,QVQLVETGGGLVQAGGSLRLSSAASGRTFAYYAMGWYRQAPGKERELVAAISSGGGSTYYADSVKGRFTISRDNAKNTVYLQMNSVKPEDTAVYYCNKGFNYCGWFKKYGYWGQGTQVTVSS,high polyreactivity
4,QVQLVETGGGLVQEGGSLRISCAASGSLFDVYAMGWYRQAPGKERELVAAISSSGSTYYADSVKGRFTISRDNAKNTVYLQMNSLKTEDTAVYYCAADQADDDDYYYWGQGTQVTVSS,low polyreactivity
5,QVQLVETGGRLVQAGGSLRLSCAASGITLPKYAMGWYRPAPGKERELVAAISRSSGRTYYADSVKGRFTISRDNAKNTVYLQMNSLKPEDTAVYYCAASHGGYITRYNYWGQGTQVTVSS,high polyreactivity
6,QVQLVETGRGLVQAGGSLRLSCAASGGTFVVYSMGWYRQAPGTERELVAAITWIGDSTYYADSVKRRFTISRDNAKNTVYVQMNSLNPEDTAVYYCNKAKLYLVGRARFQTNYGLYDFWGQVTQVTVSS,low polyreactivity
7,QVQLVETRGGLVQAGGSLRFSCAPSGRISLIYDMGWYRQAPAKERELVASITWSGDSTYYADSVKGRFTNSRDNAKNTVYLQMNSLKPVDTAVYYCAAVCWTYEYWEWYDYWGQVTQVTVSS,high polyreactivity
8,QVQLVETVGGLVQAGGSLRLTCAASGFTIYYNAMGWYRQAPGKERELVASISSNGTSTYYADSVKGRFTISRDNAKNTVYLQMNSLKPEDTAVYYCNVDIFDPRTYDYWGQGTQVTVSS,low polyreactivity
9,QVQLVETVVGLVQAGGSLRLSCAASGSIFGFYDMGWYRQAPGKERELVAVISVSDGSTYYADSVKGRFTISRDNAKNTVYLQMNSLKAEDTAVYYCAATPRGSYGYYYWGQGTQVTVSS,low polyreactivity
10,QVQLVGSGGGLVQAGGSLRLSCAASGIIFQLYAMGWYRQAPGKERELVAAITSTGTTNYADSVKGRFTISRDNAKNTVYLQMNCLKPEDTAVYYCNADVGYWWGYYGYDYWGQGTQVTVSS,high polyreactivity
11,QVQLVGVRGRLVQAGGSLRLSCAASGRTIYAYAMGWNRQAPRKERELVATITSGGSTNYADSVKGRFTISRDNAMNTFYLLMNSLKPEDTAVYYCGAGPRGYKKYDYWGHGTQVTVSS,low polyreactivity
12,QVQLVHSGGGLVQAGGSLRLSCAASGITIWYYAMGWYRQAPGKERELVAAISWRGGSTYYADSVKGRFTISRDYAKNTVNLQMNSLKPEATAVYYCAAGYSLLYTYEYWGQGTQVTVSS,high polyreactivity
13,QVQLVKSGGGLVQAGGSLRLSCAASGFIIPEYTMGWYRQAPGKERELVAAISGSGGSTYYADSVKGRFTISRDNAKNTVYLQMNSLKPEDTAVYYCAASYAVSRYLQTYAHAHGYWGQGTQVTVSS,low polyreactivity
14,QVQLVKSGGGLVQAGGSLRVSCAATGRIYTDNAMGWYRQATGKERELVAGMSSSGGRTYYADSVKGRFTISRDNAKNSVFFQMNSLLTEATAVYYCAAANSRRDGRYYWGQGTQVSVSS,high polyreactivity
15,QVQLVQSAAGLVHAGGSLRLSCAASGIIFYGYAMVSYRQAPGKERELVAAITSYDGSTYYADSVKGRFTISRDNAKNTVYLQMNSLKPEDTAEYYCAADYSTYEGWYWFDYWGQGSQVTVSS,high polyreactivity
16,QVQLVQSCGGLVQAGGSLRLSCATSGFTFPLYAMGWYRQAPGKERELVAAISSGSSTYYADSVKGRFTISRDNAKNTVYLQMNSLKPEDTAVYYCAAQKRGSPGYRRDYWGQGTQVTVSS,high polyreactivity
17,QVQLVQSGGCLVQAGGSLRLSCSASGSIFVHHDMGWYRQAPGKERELVAAISWGGGRTYYADSVKGRFTISRDNAKNTVYLQMNSLKPEDTAVYYCAVDGGEFSSYGYWGQGTQVTVSS,low polyreactivity
18,QVQLVQSGGGLVHAGGSLRLSCAGSGSIFGTNAMGWYRQAPGKERELVATITSAGSTYYADSVKGRFTISRDYAKITFYLQMNSLKPEDTAVYYCARQATGYVYREYDYWGQGTQVSVSS,low polyreactivity
19,QVQLVQSGGGLVQAGGILRLSCAASVSTLFGYAMGWYRQAPGKERELVAAINTGGSTNDADSVKGRFTISRDNAKNTVYVQMNSLKPEDTAVYYCAADYEWDAFAYDYWGHGTQVTVSS,low polyreactivity
20,QVQLVQSGGGLVQAGGRLRLSCAASGRIFYYYTMGWYRQAPGKERELVAVISRSGDRTYYADSVKGRFTISRDIAKNTVYLQMNSLKPEDTAVYYCATRWSSARMDYCGQGTQVTVSS,high polyreactivity
21,QVQLVQSGGGLVQAGGSHRLSCAASGSTFKPYALGWYRQSPGKETELVAASSRGTRTYADSVKGRFTISRDNAKNTVYLQMNSVKPEDTAVYYCAAEWRLTFGYHYEFDYWGQGTQVTVSS,low polyreactivity
